Results taken from the supplement of paper PMC10126150.
± gives the standard deviation of the averaged measurements.

Test system: ATP
Assay: switch fluorescence ratio, 500 uM ATP over buffer (Cy3 cluster intensity, sum of 5 cycles each) (fold (ratio)); higher = stronger signal-on switching upon ATP binding; sequences stand for … in TCGTCGGCAGCGTCAGATGTGTATAAGAGACAGTTTTTTTTTTTTTTTTTTTTTTTTT…TC
Settings: aptamer strand: ATP DNA aptamer (quencher-CACCTGGGGGAGTATTGCGGAGGAAGG + anchor), 100 nM annealed; ATP concentration: 500 uM
How it was run: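 Exposure to 500 uM ATP lasted 15 min at 22 °C before imaging, and a selection-buffer image was taken beforehand, for Cy3-labelled switching-strand clusters on a modified Illumina MiSeq flow-cell annealed to 100 nM quencher-labelled ATP aptamer. Five buffer/ATP cycles were run with NaOH stripping and re-annealing between them. The fluorescence ratio per cluster is summed target-cycle over summed buffer-cycle Cy3 intensity, averaged per switch-domain sequence. Clusters outside 100-1000 RFU were excluded.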

Sequence	switch fluorescence ratio
GATTGGTGTT	0.956 ± 0.025
GAATGGGGTC	0.976 ± 0.011
GGGGGCAGCA	1.01 ± 0.04
GTCGTTTTGG	0.99 ± 0.029
TGGATTATGA	0.955 ± 0.011
GCGATTGAGC	0.9808 ± 0.004
GGAGTCTGGG	0.981 ± 0.021
CCGAGTAGAG	1.4 ± 0.067
GTCGTCTTAC	1.05 ± 0.045
TGATTGGTCA	0.967 ± 0.012
GGTCGAAAGG	0.985 ± 0.063
GTGGGGGCCC	0.993 ± 0.017
TTTATGCACT	1.05 ± 0.051
GATGTAGTGG	1.029 ± 0.0055
CAGGGGCTTA	1 ± 0.038
TTTGAGAGTT	1.03 ± 0.058
GTGATAGGGC	0.999 ± 0.025
GTTCAAAAGG	0.919 ± 0.028
CGACGAATAG	1.29 ± 0.063
AGTTCTACAT	1.01 ± 0.039
ACGGTTTTGC	0.997 ± 0.013
AAAGATATCT	0.979 ± 0.022
CAGTTGTTGC	0.984 ± 0.023

Sequence	switch fluorescence ratio
GACGGATACA	1.38 ± 0.091
GGTATACTGA	1.05 ± 0.049
AAAGGTTTTG	1 ± 0.02
TAGGTATTGT	1.003 ± 0.0091
GAATGGGGCA	0.978 ± 0.032
GGGGGGGGAC	1.02 ± 0.071
CTATGTCAAC	1.06 ± 0.023
GTTCAATTGG	0.98 ± 0.021
TCGGGTAAAC	1.03 ± 0.042
TACCAATGGA	1.02 ± 0.04
GGGAGGATTT	0.987 ± 0.013
CTACTCTCGC	1.15 ± 0.019
TAGTCTGTTC	1.01 ± 0.045
CAGTTAGCAT	1.101 ± 0.0097
AAAATGGCCA	1.02 ± 0.083
TATTTGGGAC	1.02 ± 0.025
CGTAGGATTT	0.9554 ± 0.0048
GGGTGGAATT	1.005 ± 0.0092
ATTCCTAGAT	1.002 ± 0.0091
AAGATTTGAC	1.003 ± 0.0085
GATCGGAATA	1.87 ± 0.091
CCGAGGTCGT	1.17 ± 0.066
GTTTTAGAGT	0.989 ± 0.02

Sequence	switch fluorescence ratio
TTGTCAGGGT	0.995 ± 0.026
GCGGGCGCCC	1.011 ± 0.006
ATTGGGTTTG	1.01 ± 0.021
TTTCGTGGTC	1.02 ± 0.015
ATCGGTGAAG	0.9925 ± 0.0058
GCATTTTTAT	1.02 ± 0.037
TTCTGGCTTT	1.16 ± 0.25
GATATTTTGG	0.982 ± 0.025
TATCCGTGCT	1 ± 0.029
GCTGGGGTTT	0.996 ± 0.043
TGCGGGGCGG	1.02 ± 0.034
GCATTAATG	1.03 ± 0.021
ATTATCCGCT	1.15 ± 0.014
GGACGATGGT	1 ± 0.026
TATAAAGCAG	1.03 ± 0.024
CCTATCGTTG	1.08 ± 0.0056
AGGAAGGGTT	1.05 ± 0.12
TTTTTAAGAT	0.995 ± 0.035
ATTTTATGTG	0.991 ± 0.018
GGGGGTTTCG	0.999 ± 0.036
CGGGTATATT	1.01 ± 0.032
CTGAAAGGGC	1.03 ± 0.066
CGGGAGAAAG	1 ± 0.022

Sequence	switch fluorescence ratio
TTAGCGTGCT	0.994 ± 0.0073
GGAATGGGTA	0.997 ± 0.027
GGTTGTTTTT	1.01 ± 0.032
GAACTAGGTC	1.01 ± 0.021
CACGAGGAGG	0.9809 ± 0.0055
GTTTGCACTG	1.04 ± 0.021
TACTAAGTAT	0.996 ± 0.069
CTCACGGGGC	1.16 ± 0.16
ACCCATGCTT	1.06 ± 0.013
TCATGAGCTT	1.039 ± 0.0015
GGATTGGGGT	0.986 ± 0.04
GTGTGGTATA	0.982 ± 0.012
GCAGGCGTCA	1.04 ± 0.015
TAGCGGCGT	0.9938 ± 0.0097
TTAGCTGTAG	1.09 ± 0.11
AGCGACCGTT	1.032 ± 0.0078
GGAGGGGGAG	0.9817 ± 0.0084
ACTTACGGTT	1.32 ± 0.18
AAGAGGGACT	1.03 ± 0.021
TTTTTTTTG	0.987 ± 0.019
TAAGGCATAG	1.04 ± 0.044
AACGGCAGTG	1.03 ± 0.022
ACACGTTCTT	0.996 ± 0.019

Sequence	switch fluorescence ratio
ACTGAGGCCT	1.05 ± 0.045
TGCGACTGGT	0.942 ± 0.024
GGATCTGTCG	0.98 ± 0.037
ACCATTCAAA	1 ± 0.021
GGGGGCCCGA	0.9925 ± 0.0076
GTGGTAAGCG	0.995 ± 0.065
GCAATCAATA	1.02 ± 0.015
AGTTTGGGGT	1.01 ± 0.029
TTCTCTAGGG	0.99 ± 0.0049
TTGGAGCACT	1.38 ± 0.075
TGGAGGACTA	1.14 ± 0.13
GTGTGAAAGG	1 ± 0.013
CTATTTTACT	0.9873 ± 0.0073
TCCAGGGGGC	1.18 ± 0.16
ATTAGTTATT	1.02 ± 0.015
TATGAATATT	0.985 ± 0.027
GGTGCAGCTG	0.981 ± 0.016
GAGGGCACGC	0.968 ± 0.06
GGGGAGAGAC	1.04 ± 0.041
CCAAGGGTAT	0.9873 ± 0.0019
TGTTTTGGGC	0.992 ± 0.033
GGTGTTAGTG	0.977 ± 0.023
TTTTGGTTGA	0.977 ± 0.025

Sequence	switch fluorescence ratio
TGAGGCGCGG	0.97 ± 0.025
TTCGACGAGG	0.996 ± 0.022
ATGGTTGCAG	0.9553 ± 0.004
GGTGAAATTG	1 ± 0.015
ATGGGCGGGC	1.01 ± 0.03
GGTCCAGGAT	1.018 ± 0.0068
TTCAGGGATG	0.9822 ± 0.0028
GGTCTAAGTA	1.08 ± 0.084
TCGGATAGCT	1.02 ± 0.014
CAGAATTTAG	0.996 ± 0.024
TTCGGTGACC	1.02 ± 0.014
TCTGGTTGCG	1 ± 0.037
GGGGGTATCG	0.967 ± 0.021
CGAGGTTGAC	1.0385 ± 0.00054
TAGTTTTGTA	0.971 ± 0.05
TACTTGGCTT	1.02 ± 0.031
AAGTGTATGG	0.997 ± 0.0098
CTCTCGACAC	1.69 ± 0.078
GCAAAAAAAT	1.04 ± 0.025
TTTCTAGTGG	0.999 ± 0.03
TAGGCTTTAA	0.976 ± 0.011
ACACAAATGA	1.01 ± 0.024
GGGGTGAGTG	1.02 ± 0.045

Sequence	switch fluorescence ratio
CGGTGGCATA	1.04 ± 0.018
GTCGGGGGTA	0.992 ± 0.039
CCGGCGGGG	1.04 ± 0.027
GTTTAATTGG	1 ± 0.024
TTGTAAATTT	1.012 ± 0.01
ACTCAAACCA	1.14 ± 0.035
AACTTTTTCG	1.012 ± 0.0034
GAAAGGGTTA	0.9898 ± 0.0085
ATGTTGTCGA	1.01 ± 0.031
GGCCGTGAGG	1.01 ± 0.0098
CCGTATCCCT	1.03 ± 0.043
ACGCACTAAG	1.61 ± 0.026
AAACCGACAT	1.27 ± 0.03
TAAACTGGGA	1.004 ± 0.0093
GAGGTGTGAG	1.03 ± 0.018
TTCGGGTGGA	1.02 ± 0.046
GTGTTAGTAT	1.02 ± 0.031
TTTCGAGAAG	1.05 ± 0.054
TGCGGGGGTC	1.04 ± 0.088
